# Patent US8993717B2, “Gadd45beta targeting agents” (Imperial Innovations Limited, priority 2009, dated 2015)
# pIC50: −log10 of the molar value. Primed or numbered codes have the meaning given here. * marks the point of attachment. Benzoyl(3-OH,4-OMe) = COc1ccc(C(=O)*)cc1O; Fmoc = O=C(OCC1c2ccccc2-c2ccccc21)*; Myristoyl = CCCCCCCCCCCCCC(=O)*; ClZ = O=C(OCc1ccccc1Cl)*; OMe′ = Asp methyl ester; Cbz = O=C(OCc1ccccc1)*; βAla = NCCC(=O)O
# Biological target: T1, Gadd45β/MKK7 interaction (Homo sapiens, UniProt O14733)
# T1 construct: The GST-fused full-length kinase was coated for 16 h at 4° C., at a concentration of 42 nM; made in house
# T1 sequence (O14733 1-419): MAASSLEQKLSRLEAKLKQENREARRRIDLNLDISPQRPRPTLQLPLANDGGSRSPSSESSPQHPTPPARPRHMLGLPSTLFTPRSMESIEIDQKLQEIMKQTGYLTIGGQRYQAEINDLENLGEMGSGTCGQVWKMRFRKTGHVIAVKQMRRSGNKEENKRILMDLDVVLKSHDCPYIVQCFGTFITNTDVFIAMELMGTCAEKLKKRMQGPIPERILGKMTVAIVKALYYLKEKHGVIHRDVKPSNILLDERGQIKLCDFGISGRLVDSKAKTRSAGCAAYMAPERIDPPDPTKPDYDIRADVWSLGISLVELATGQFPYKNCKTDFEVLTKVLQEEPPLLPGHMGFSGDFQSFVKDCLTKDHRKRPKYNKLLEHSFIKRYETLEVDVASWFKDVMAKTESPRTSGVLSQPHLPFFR
# Assay: ELISA competition assay of biotin-hGadd45β binding to coated GST-MKK7
# Settings: for inhibition of Gadd45β/MKK7 complex formation in ELISA competition assays: result in words
# Experimental: To evaluate the inhibitory properties of peptides, ELISA-based assays were performed. In these assays, a fusion protein of glutathione S-transferase (GST) and mitogen-activated protein kinase kinase 7 (MKK7) was coated onto wells of a 96-well plate, while biotinylated-hGadd45β was used in solution. hGadd45β was biotinylated using an EZ Link NHS-LC-biotin kit (Pierce, Rockford, Ill.), according to Tornatore et al. (Tornatore L., et al. (2008). J Mol Biol; 378:97-111).
# Firstly, the association between Gadd45β and MKK7 was investigated by ELISA assays as also reported in Tornatore et al. (Tornatore L., et al. (2008). J Mol Biol; 378:97-111). The GST-fused full-length kinase was coated for 16 h at 4° C., at a concentration of 42 nM in buffer A (25 mM Tris pH 7.5, 150 mM NaCl, 1 mM DTT and 1 mM EDTA) into wells of a 96-well microliter plate. Some wells were filled with buffer alone and were used as blanks. After incubation for 16 h at 4° C., the solutions were removed and the wells were filled with 350 μL of a 1% (w/v) solution of NFDM (Non Fat Dry Milk) in PBS (phosphate buffered saline). The plate was incubated for 1 h at 37° C. in the dark. After washing with buffer T-PBS (PBS with 0.004% (v/v) Tween detergent), the wells were filled with 100 μL of biotinylated-hGadd45β at concentrations ranging from 8.4 nM to 168 nM. Each data point was performed in triplicate. Following incubation for 1 hr in the dark at 37° C. the solutions were removed and the wells were again washed with T-PBS. Then 100 μL of a 1:10,000 dilution of horseradish peroxidase-conjugated streptavidin dissolved in buffer was added to each well and the plate incubated for 1 hr at 37° C. in the dark. After removal of the enzyme solution and washing, 100 μL of the chromogenic substrate o-phenylendiamine (0.4 mg/mL in 50 mM sodium phosphate-citrate buffer, containing 0.4 mg/mL of urea in hydrogen peroxide) was added and the colour was allowed to develop in the dark for 5 min. The reaction was stopped by adding 50 μL of 2.5 M H2SO4. The absorbance at 490 nm was measured in all wells and the values were averaged after subtracting the corresponding blanks. Bound protein was then detected as described above. The molar concentration of biotinylated-hGadd45β at which the half-maximal ELISA signal is detected corresponds to the dissociation constant (KD) (Friguet B, Chaffotte A F, Djavadi-Ohaniance L, Goldberg M E. J Immunol Methods. 1985 Mar. 18; 77 (2):305-19). Binding competition assays were performed by coating GST-MKK7 at 42 nM as described, a concentration of biotinylated-hGadd45β of 21 nM (pre-saturation conditions 1:0.5 mol/mol ratio) and, in a first test, using competitors at 21 nM. The binding of biotinylated hGadd45β to GST-MKK7 was analyzed in the presence of increasing amounts of competitor peptide (concentrations ranging from 0.01 nM to 100 nM), and the values obtained with the competitor were expressed as the percentage of the binding detected in the absence of competitor. […] According to the convention adopted in the table “L-Xaa” and “D-Xaa” refer to the L and D forms of amino acid Xaa.
# A simplified combinatorial peptide library (Marasco et al. 2008, Curr. Protein Pept. Sci. 9:447-67) was screened for antagonists of the Gadd45β/MKK7 interaction. This library contained a total of 12^4=20,736 different tetrapeptides formed by combinations of the following amino acid residues Gln (Q), Ser (S), Arg (R), Ala (A), Tyr (Y), Pro (P), Met (M), Cys (C), Phe (F), Leu (L), His (H), Asp (D), and was iteratively deconvoluted in four steps by ELISA competition assays using at each step coated MKK7 (42 nM), soluble-biotin-hGadd45β (21 nM) and each of the 12 sub-libraries (42 nM).
# [1] = Table II, modified pure peptides
# [2] = Table I, initial Elisa screening, coated MKK7 42 nM, biotin-hGadd45β 21 nM, competitor 21 nM, sub-libraries 42 nM
molecule,measurement,setting,value
Ac-AERF-NH2,% Inhibition of Gadd45β-MKK7 binding,"Table III, modified peptides",7%
Z-YD(OMe)HF-NH2 (Cbz-YD(OMe′)HF-NH2),% Inhibition of Gadd45β-MKK7 binding,"Table III, modified peptides",84%
Ac-YEKF-NH2,% Inhibition of Gadd45β-MKK7 binding,[1],64%
Ac-YDHF-NH2,% Inhibition of Gadd45β-MKK7 binding,[1],94%
same,inhibition of Gadd45β/MKK7 complex formation in ELISA competition assays,,IC50s similar to those of DTPs
Fmoc(βAla)2-YDHD-NH2 ({Fmoc-βAla-βAla}-YDHD-NH2; SMILES NC(=O)[C@H](CC(=O)O)NC(=O)[C@H](Cc1c[nH]cn1)NC(=O)[C@H](CC(=O)O)NC(=O)[C@H](Cc1ccc(O)cc1)NC(=O)CCNC(=O)CCNC(=O)OCC1c2ccccc2-c2ccccc21),% Inhibition of Gadd45β-MKK7 binding,[2],0%
Ac-YDRW-NH2,% Inhibition of Gadd45β-MKK7 binding,[1],43%
Ac-YERW-NH2,% Inhibition of Gadd45β-MKK7 binding,[1],59%
2CI-Z-YERF-NH2 (ClZ-YERF-NH2),% Inhibition of Gadd45β-MKK7 binding,"Table III, modified peptides",38%
"3-OH—4MeO-Benzoid acid-YDHF-NH2 ({Benzoyl(3-OH,4-OMe)}-YDHF-NH2)",% Inhibition of Gadd45β-MKK7 binding,"Table III, modified peptides",81%
Myr-YERF-NH2 (Myristoyl-YERF-NH2),% Inhibition of Gadd45β-MKK7 binding,"Table III, modified peptides",37%
Ac-WEHW-NH2,% Inhibition of Gadd45β-MKK7 binding,[1],75%
Ac-YERFLys(Z)-NH2 (Ac-YERFK(Cbz)-NH2; SMILES CC(=O)N[C@@H](Cc1ccc(O)cc1)C(=O)N[C@@H](CCC(=O)O)C(=O)N[C@@H](CCCNC(=N)N)C(=O)N[C@@H](Cc1ccccc1)C(=O)N[C@@H](CCCCNC(=O)OCc1ccccc1)C(N)=O),% Inhibition of Gadd45β-MKK7 binding,"Table III, modified peptides",6%
"CC(=O)N[C@H](CC1CCCCC1)C(=O)N[C@H](CCCNC(=N)N)C(=O)N[C@H](Cc1ccccc1)C(N)=O [Compound 20, Ac-Cha-Arg-Phe-NH2]",pIC50,"Table V, FIG. 3C, read-out: IC50 ELISA",< 8.30
same,inhibition of Gadd45β/MKK7 complex formation in ELISA competition assays,,inactive
Fmoc(βAla)2-YDHH-NH2 ({Fmoc-βAla-βAla}-YDHH-NH2; SMILES NC(=O)[C@H](Cc1c[nH]cn1)NC(=O)[C@H](Cc1c[nH]cn1)NC(=O)[C@H](CC(=O)O)NC(=O)[C@H](Cc1ccc(O)cc1)NC(=O)CCNC(=O)CCNC(=O)OCC1c2ccccc2-c2ccccc21),% Inhibition of Gadd45β-MKK7 binding,[2],40%
Benzoic acid-YDHQ-NH2,% Inhibition of Gadd45β-MKK7 binding,"Table III, modified peptides",1%
